The record followed here is patent publication US6030783, “Photo-potentiation of cisplatin chemotherapy” (Massachusetts Institute of Technology).

Data set [1] relates to HMG1. The following applies: [Pt(en)Cl2]; photo-cross-linking efficiency about half that of cis-DDP probe.
Data set [2] has as its target T1, HMG domain B (of HMG1) (UniProt P63159 P63159:86-165). Kind of data set: EMSA; 10-40 equiv protein; about 50% shifted at 1 uM DNA with 1.5 equiv (Example 5); also photo-cross-links at 302 nm via Lys-6; 10 mM Tris pH 7.5, 10 mM MgCl2, 50 mM KCl. Conditions: tags: expressed from pHB1 in E. coli BL21(DE3); label: 5'-32P. As to the method: Reaction mixtures (10 µL total volume) were prepared containing 10 mM Tris-HCl, pH 7.5, 4% (v/v) glycerol, 10 mM MgCl2, 50 mM KCl, 1 mM EDTA and 0.05% (v/v) Nonidet P-40. HMG domain B [expressed and purified from pHB1/*Escherichia coli* BL21 (DE3) (Chow et al. (1995) *Biochemistry* 33: 15124–30)] was added, and the solution was incubated for 30 min on ice to allow protein-DNA binding. For binding of the 123- and 82-bp probes to HMG1, 0.2 µg of BSA/mL, 2 µg of competitor chicken erythrocyte DNA, and 300 ng of HMG1 were included in the reaction mixtures. To induce photo-cross-linking of the protein—DNA complexes, the reaction mixtures contained in open microcentrifuge tubes were placed on ice and irradiated from about for 1–2 h at a distance of 4 cm from a transilluminator (Ultra-Violet Products, TM-15) equipped with one of several different lamps, with primary spectral outputs of 254, 302, or 365 nm. The light intensity, 2.6–2.9 J m^-2 s^-1, was measured with a UVX radiometer (Ultra-Violet Products). Following irradiation, the reaction mixtures were combined with 5 µL of gel-loading solution [10 M urea, 1.5 mM EDTA, 0.05% (w/v) bromophenol blue and xylene cyanol]. The DNA was denatured by heating at 90° C. for 4 min and then analyzed by denaturing PAGE. The denaturing 8% polyacrylamide gel was run to determine photo-crosslinking of HMG1 to globally platinated 123-bp probes. […]
(In general: Mobility shift assays separate free from complexed probe on a gel.)

The target of data set [3] is T1, HMG domain B (of HMG1). Kind of data set: EMSA; 10-40 equiv protein. Conditions: tags: expressed from pHB1 in E. coli BL21(DE3); label: 5'-32P.

T1 sequence (P63159 86-165, one chain of several): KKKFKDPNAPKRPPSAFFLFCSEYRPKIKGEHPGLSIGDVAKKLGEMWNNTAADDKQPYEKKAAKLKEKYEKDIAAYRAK

With [Pt(en)Cl2]-modified DNA, in data set [1], the binding signal (fraction of cis-DDP probe) amounted to 0.5.

B1: 15Pt/15B cisplatin-modified 15-bp duplex (dsDNA)
DNA 1: CCTCTCTGGTTCTTC
DNA 2: GAAGAACCAGAGAGG
modifications: single cis-[Pt(NH3)2{d(GpG)-N7(1),-N7(2)}] intrastrand cross-link at GG
As to B1, the binding result in data set [2] is “binds”.

B2: 15Pt single strand (ssDNA)
DNA: CCTCTCTGGTTCTTC
modifications: single cis-[Pt(NH3)2{d(GpG)-N7(1),-N7(2)}] intrastrand cross-link at GG
As to B2, the binding result in data set [3] is on record as “no binding”.
